We go through 18 sequences from a protein production outcome set (Wang et al. 2014).
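Note: failed if final PepcDB status was selected cloned or expressed and not failed if soluble or beyond.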

The data set can be described thus: label from the status in PepcDB records.
Regarding “MSLPGLSAAADQTIKIGAQSMSESEIIASMLGQLIEHHTDLKTTTIKNLGSNAVQQQALMNGEIDIAATRYTGDALTGTLRMEPEKDPDKALALTQREFKKRYDLKWYDSYGFDNTYAFTVSKELADQYHLETVSDVKKWAPQLKLGVDNYWMKLKGNGYQDFTKTYGMTFGGTYPMQIGLVYDAVKSGKMDIVLAYSTDGRIKSYGLKMLKDDKQFFPPYDCSPVVPEKVLKEHPELEGIIKKMLGKIDTATMQELNYEVDGNLKEPSVVAKEYLEKHRYFESLEHHHHHH”, the protein production entry is “not failed”.

Regarding “DTMCLAIPGQVIEIREENGLKMGTVDISGALTKACLEYVPEIAIGQYTIVHAGFALKIIDEKEAAESLKLWDELIKSG”, the protein production entry is reported as “not failed”.

As to “MFESLNKVINGYGLISGFAIIGVTMAVSYWLSARLTRGRLHGSAIAIFLGLVLSYVGGVATGGQKGLVDVPLMSGIGLLGGAMLRDFAIVATAFGVNVEELRRAGVSGVVSLFLGVGSSFVAGVAVAMAFGYTDAVSLTTIGAGAVTYIVGPVTGAALGASSEVMALSIAAGLVKAILVMVLTPFVAPYIGLNNPRTAVIFGGLMGTSSGVAGGLAATDPKLVPYGCLTAAFYTAIGCLLGPSLLYFSVRGLVG”, the protein production entry is on record as “failed”.

In the case of “MNGSLQTADRTPVDYVNPYIGNISHLLVPTFPTIQLPNSMLRVYPERADYTSELLKGLPLIVTNHRERSAFNFSPYQGEKLRPVITYNYDNEHITPYSFDVELDDNRMKAEYALSHQSAIYRITYEADKPAYLIVNSRNGSIHANENFISGRQQLNDNTNVYVYIEAQEKPLEHHHHHH”, the protein production result is given as “not failed”.

With “MAAPRPGPLRPARGFAPMNNVNGILLVVAAMAAFSIEDMFIKKLSVTVPIGQILLVLGVFCSAAFLTMAVATRKRVFSRAAWSPLLLIRAATEAVSALTFATALSLVDLSTVAAVFQAMPLVVTMGAALFLGEQVGWRRWSAITVGFVGVLMIIRPGMAGFQPAQLLVVASVISVAARDLITRRIDAHVASAVVSFQAYLALILGGAGILLVSGTALVPVEPGHWGPYAGAILFGVLGYYGIVTAMRVGEASVVTPFRYTRLLFSLLAGVLVFGERPDWPTLAGGALIIGSGLYTFLRERRLARELAAVPA”, the protein production entry is on record as “failed”.

On to “MKKIAFGCDHVGFILKHEIVAHLVERGVEVIDKGTWSSERTDYPHYASQVALAVAGGEVDGGILICGTGVGISIAANKFAGIRAVVCSEPYSAQLSRQHNDTNVLAFGSRVVGLELAKMIVDAWLGAQYEGGRHQQRVEAITAIEQRRN”, for which the protein production result is on record as “not failed”.

Consider “MSDVRTNEAEKRHAHPDFDAARFPADARVRVLARRFPPYHRDSPCLAILDRFLHDPTLSAAAVVDDAMRPVGLIDRYSLVEQFLHPYSRDLYHKHSIAAFMDPEPVIVEADSSIDDLSRIIIDAGMRHMVSGFIVTEDGLYLGIGSGHDLFEEVANRKQNHLYHLAHYDPLTSLPNRLLLNDRLKRACLRGQRGGYRIALLFIDLDRFKLVNDTLGHAAGDQLLQGVAGRFAACVRKVDTVARLGGDEFTVLLEPVQGPDEALAVAAKLAQSLERPFLIQNHEITTSASIGVVLFPEHDATVEGLMRKADAAMYCAKREGRNRFALFTEEMNSTVVERVTLESYLNAALEKGEFCCHFQPQMATADDRIVGVEALLRWTNPVLGRVPPLKFIPVAEDTGLILPLGLWALETACAQQVRWLSQGLPPLRMAVNISPLQFRNREFCDQVRAIVQRTGIRAEHLELELTESAVMADAESSVGILRELRDSGIRLAIDDFGTGYSSLSYLRKFPLDRLKIDRSFVSGIDRIPANELIVKAIVALGGSLGLDVIAEGVETPEELECIERCGCSEYQGFRLSEPLTAEDFAHWFEDSGYV”, for which the protein production result is reported as “failed”.

With “MGRKQLNHIKCRENCSLVAKAGFRHRRVIIQGIQSAMVQDSDEILFVEEEDPVAGSLPSDVSPWKVLVADDDPEVFTVTRLVLSGFVFAGRGVSLLYAGSAAEATEILRQQSDIAVALLDVVMETEDAGLKLVKVIRDDLGNSHLRIVLRTGQPGQAPEHDVVMRYDINDYRSKTELTDTKLITTLVSSLRSYQQIEALERSRAELREARDTLEIRVAERTRDLRESEARLRSILDASVFPILVLSEEGDRVRFLNDHAGEALGWALLENTTSTLPDLWENPVDGARLLARTVQRGRVLDCEFRLRGAGGEPFWALVSTIAMSYDGQPAVLLSFNDITVHKQREEAWQRLALTDPLTGLGNRRLLFDRGILEVARARRGCWPLSGLMIDLDHFKRINDTQGHAAGDAILRTLADTLRESLREIDVIARVGGEEFAILLPDTSLTAAHEVGERLRLSCQIPQPVGGPVTISVGISTLHPEDRGLGDMLSRADDALYRAKRNGRDRVEIADDSEDNQDVSP”, the protein production entry is “failed”.

“MKILLLGGNGFIGRRLAARLIEAGHELSAPSRVELDLARPNQDWAAWVDGVDAVANLAGAFRQGRAGGFEAIHHAGPLRLAALARAHGVRRWVQLSALGAAAHAGAPFLSSKGRGDAALLDCGMEAVVARPSLIYGADGASSRLLLRLARLPFWLLPEGGGQRIQPVAAADVAEGLQRLIEGDARGVIDFVGAAEASLADYLRQLRRLQGVGGAAWLCPVPAWLAAGLAAACGCWPGSLLNRDSLRMLRQGSTADPAAFAALLGRQPLSFRQFGEVA”: the protein production entry is “failed”.

As to “MKAIRRFTVRPVLPDALHPLSDLARNLRWSWHAETRELFQSVDPERWAASDGDPVRLLGSVPHARLAELAEDRRFLRRLGAAADDLTDYVTGDRWYQSQAEAPSRAAELPAAIAYFSPEFGVTAALPQYSGGLGILAGDHLKAASDLGVPLIGVGLLYRHGYFRQSLSRDGWQQEHYPVLDPHELPVVPLREDDGALAQVSLALPGGRRLQARIWLAQVGRVPLLMLDSDVEENDHGERGVTDRLYGGGSEHRLLQEMLLGIGGVRAVRTYCRLTGHAEPEVFHTNEGHAGFLGLERIAELCDTGLDFDAGLESVRAGTVFTTHTPVPAGIDRFDRELVARHFGPDAELPRIDVERILGLGMETYPGGEPNLFNMAVMGLRLGQRANGVSLLHGQVSREMFSGLWPGFDPDEVPITSVTNGVHAPTWVAPEVFRLGARQIGAQRTEDAMTVGGSERWDAVAEIPDQDIWDLRRVLREQLVTEVRERLRASWRQRGAGTAELGWIDGVLDPDVLTIGFARRVPSYKRLTLMLRDRDRLMDLLLHPERPVQIVVAGKAHPADDGGKRLVQELVRFADDPRVRHRIVFLPDYGMAMAQKLYPGCDIWLNNPLRPLEACGTSGMKAALNGCLNLSVLDGWWDEWFQPDFGWAIPTADGTATDEDRRDDLEATALYDLLEGRVAPRFYERGQAGLPDRWIEMVRQTLTHLGPKVLAGRMVREYVERLYTPAALAHRALTPEPARELATWKSRVRAAWPRVTVDHVETSVATTTAELGTTLSLRVRVGLGDLDPDDVEVQAVAGRVDGQDRITDATAVPLKPVGGPDLEGRRVYEGPLSLDRTGPFGYTVRILPTHRLLATSAELGLVAVPSEDVGEGAGVLLR”, the protein production entry is “failed”.

Turning to “SETRSPGLNNMKPQSLQLVLEEQVLALQQQMAENQAASWRKLKNSQEAQQRQATLVRKLQAKVLQYRSWCQELEKRLEATGGPIPQRWENVEEPNLDELLVRLEEEQQRCESLAEVNTQLRLHMEKADVVNKALREDVEKLTVDWK”, the protein production result is given as “failed”.

On to “RLRHCNHHDPHGFYGWHETEAGSVIRTRQVGATQVNLLIDDTSHVMTPIGDDIFAIDLGHRERADYRLEVTWPDQEPQVKADPYYFLPTVG”, for which the protein production result is given as “failed”.

Consider “MRRCPLCHSTQTHLLLQDKKRCFYICQTCWLTFADANSHLPPAAEKQRYGRSRIASKQRHLSQFILPLLTQIQQQQNGSLTGLNFGRVLDQTSLETIESAGHTFKQYDPFFAPDHETLKQEYDFICCYRVFEHFQYPIKEWSLLTRLLKPGGWLAISTPLLIDLEGFAKWHYKNNLTHVSFYQRQTFEYLASNSDFELLFAAKDLVLMQKTSLEHHHHHH”, for which the protein production result is listed as “not failed”.

As for “MPADWLARPRFVSAFSIVVFLLLAAFGEYVVRIEAERLRVIAQNQVLAEASTIRARLEGELYSTLYLANGLSSYVSAHKALDPAAVKIILSTVFGYGRHLRNIVLAPDNEVRFTYPLKGNEKVIGFRYQDNAEQWRAVKRAMETRTTVLSGPVDLVQGGRGLISRTPVFLPDGEYWGIVALVINIDSLFATINKDRRPARITWALRSNDETGEKGRILFGDAWLFDHDHVNLSIAIPGGSWELAATPAEGWRPPGKRLLVLRIATLALSGLIAALVFLVLFERIRIQHLALHDSLTDLPNRRLLDDRLERAIAQARRNRDGFALLYVDLDDFKPINDRFGHRAGDHVLVEIARRLRGALRRADTVARVGGDEFMLILPGARGRHGAMTVVQKLAGIICQPIGYKGQYLNVSASIGVSTYPENGVTADALISHADGSMYRFKQHRKSPTDINGNQRSGAVSSEVS”, the protein production result was “failed”.

Regarding “IAALSRDITPQQDGSVIVDASITIRHLNRMMGWSLPLIGPRTLSGLIIEHLGYIPPPDSCLVIDHYHIEILRVSDNMIRGVKMIKTN”, the protein production result is “failed”.

Regarding “MTELVTFGETMLRLSPPGDERLETADQYAVRAAGAESNVAVAAQRLGVDAMWASKLPDSPVGRRVTGELKHHGVSVDVAWDDSDSARQGTYYLEQGSPPRGNDVIYDRQNASVTTATPAELPTEAIADAAGFHTSGITPALSETLESTTADLLSLAQDAGTTTSFDLNYRSKLWTPAEARSVLTELFPSVDLLVVAERDANVVLDRTGDAETIARDLAAEYGFEATVITRGSDGALALADGTVTEQPTFESTDAHPVGTGDSFVGGFLSQYLSGGTVADGLAWGAATAALKRTIPGDIAVVSPDEIRSILSGDTEAISR”, the protein production result is given as “failed”.

Take “MIDGNSIIVSSPEVAFPIAVRYAWADNPICNLYNGVNLPASPFRTDDWQGILMVINRYSCFDLPSEIDVTHKKITMNKLIYLVIFSFLSTSIYAQMKDLVQYVNTLQGTDSHFGLSYGNTYPTTGMPYAMHTWSAQTGKNGEGWKYQYAVDNIRGFCQSHQCSPWMSDYAVYSFMPMVGKLVVNQEMRATKFSHDNEIAKPHYYKVMLDNGITTEMAPTTRGVHLRFSYPSTEDAYLVIDGYTDMSEIKIDPAKRQISGWVNNQRFVNNSKTFRSYFVVQFDKAFEDYGMWENQKDEIYPKKLEGEGKGYGAYIKFKKGSKVQAKAASSYISAEQAVITLNDELGKDKNLEATKIRGHKTWNELLNRIQVEGGTDEQMKTFYSCLFRANLFSRKFYERKANGEPYYYSPYDGKVYDGYMYTDNGFWDTFRSQFPLTNILHPTMQGRYMNALLAAQEQCGWLPSWSAPGETGGMLGNHSISLLADAWAKGIRTFDPEKALKAYAHEAMNKGPWGGANGRGFWKEYFELGYVPYPESMGSSAQTMEYAYDDFCGYQLAKMTGNKHYQEVFARQMYNYKNVFDPSIGFMRGKGVDGKWQEPFDPLEWGGPFCEGNAWHYTWSVFHDVEGLIDLFGSDQRFTTKMDSVFTLPSTIKPGTYGGVIHEMKEMELSGMGQYAHGNQPIQHMPYLYSYAGQPWKTQYWVRQIVERLYNSTERGYPGDEDQGGMSSWYILSSLGIYAVCPGTDEYVIGSPLFKKATITMENGNKFVIEANNNSKENLYIQSATLNGRVLDKNFIRYDDIADGGIIRFEMGSQPNKERCTSKYAAPFSLSKE”: the protein production entry is listed as “failed”.

Regarding “MENLALTTLLLPFIGALVVSFSPQRRAAEWGVLFAALTTLCMLSLISAFYQADKVAVTLTLVNVGDVALFGLVIDRVSTLILFVVVFLGLLVTIYSTGYLTDKNREHPHNGTNRYYAFLLVFIGAMAGLVLSSTLLGQLLFFEITGGCSWALISYYQSDKAQRSALKALLITHIGSLGLYLAAATLFLQTGTFALSAMSELHGDARYLVYGGILFAAWGKSAQLPMQAWLPDAMEAPTPISAYLHAASMVKVGVYIFARAIIDGGNIPHVIGGVGMVMALVTILYGFLMYLPQQDMKRLLAWSTITQLGWMFFGLSLSIFGSRLALEGSIAYIVNHAFAKSLFFLVAGALSYSCGTRLLPRLRGVLHTLPLPGVGFCVAALAITGVPPFNGFFSKFPLFAAGFALSVEYWILLPAMILLMIESVASFAWFIRWFGRVVPGKPSEAVADAAPLPGSMRLVLIVLIVMSLISSVIAATWLQ”, the protein production entry is “failed”.
